# According to patent US20260049138A1 (Chugai, published 2026):
# Where a chain is given by its changes, count along the chain named. Numbers in names are those of the source.
# B1: CE115HA000 S77T one-arm antibody (antibody, human IgG1, kappa, L234A L235A, N297A, name in Kabat numbering)
# heavy: QVQLVESGGGVVQPGRSLRLSCAASGFTFSNAWMHWVRQAPGKGLEWVAQIKAKSNNYATYYAESVKGRFTISRDDSKNTLYLQMNSLKTEDTAVYYCRYVHYGAYYGVDAWGQGTTVTVSSASTKGPSVFPLAPSSKSTSGGTAALGCLVKDYFPEPVTVSWNSGALTSGVHTFPAVLQSSGLYSLSSVVTVPSSSLGTQTYICNVNHKPSNTKVDKKVEPKSCDKTHTCPPCPAPEAAGGPSVFLFPPKPKDTLMISRTPEVTCVVVDVSHEDPEVKFNWYVDGVEVHNAKTKPREEQYASTYRVVSVLTVLHQDWLNGKEYKCKVSNKALPAPIEKTISKAKGQPREPQVYTLPPSRCELTKNQVSLSCAVKGFYPSDIAVEWESNGQPENNYKTTPPVLDSDGSFFLVSKLTVDKSRWQQGNVFSCSVMHEALHNHYTQKSLSLSPDYKDDDDK
# chain: EPKSSDKTHTCPPCPAPELLGGPSVFLFPPKPKDTLMISRTPEVTCVVVDVSHEDPEVKFNWYVDGVEVHNAKTKPREEQYNSTYRVVSVLTVLHQDWLNGKEYKCKVSNKALPAPIEKTISKAKGQPREPQVCTLPPSRDELTKNQVSLWCLVKGFYPSDIAVEWESNGQPENNYKTTPPVLDSDGSFFLYSKLTVDKSRWQQGNVFSCSVMHEALHNRYTQKSLSLSP
# light: DIVMTQSPLSLPVTPGEPASISCRSSQSLVHSNRNTYLHWYQQKPGQAPRLLIYKVSNRFSGVPDRFSGSGSGTDFTLKISRVEAEDVGVYYCGQGTQVPYTFGQGTKLEIKRTVAAPSVFIFPPSDEQLKSGTASVVCLLNNFYPREAKVQWKVDNALQSGNSQESVTEQDSKDSTYSLSSTLTLSKADYEKHKVYACEVTHQGLSSPVTKSFNRGEC
# B2: CE115HA000 Y55D one-arm antibody (antibody, human IgG1, kappa, L234A L235A, N297A, name in Kabat numbering)
# heavy: B1 heavy with Y58D, T80S
# chain: B1 chain
# light: B1 light
# B3: CE115HA000 V95S one-arm antibody (antibody, human IgG1, kappa, L234A L235A, N297A, name in Kabat numbering)
# heavy: B1 heavy with T80S, V101S
# chain: B1 chain
# light: B1 light
# B4: CE115HA000 W33Y one-arm antibody (antibody, human IgG1, kappa, L234A L235A, N297A, name in Kabat numbering)
# heavy: B1 heavy with W33Y, T80S
# chain: B1 chain
# light: B1 light
# B5: CE115HA000 V95A one-arm antibody (antibody, human IgG1, kappa, L234A L235A, N297A, name in Kabat numbering)
# heavy: B1 heavy with T80S, V101A
# chain: B1 chain
# light: B1 light
# B6: CE115HA000 V11L one-arm antibody (antibody, human IgG1, kappa, L234A L235A, N297A, name in Kabat numbering)
# heavy: B1 heavy with V11L, T80S
# chain: B1 chain
# light: B1 light
# B7: CE115HA000 W33D one-arm antibody (antibody, human IgG1, kappa, L234A L235A, N297A, name in Kabat numbering)
# heavy: B1 heavy with W33D, T80S
# chain: B1 chain
# light: B1 light
# B8: CE115HA000 Y58A one-arm antibody (antibody, human IgG1, kappa, L234A L235A, N297A, name in Kabat numbering)
# heavy: B1 heavy with Y61A, T80S
# chain: B1 chain
# light: B1 light
# B9: CE115HA000 V95K one-arm antibody (antibody, human IgG1, kappa, L234A L235A, N297A, name in Kabat numbering)
# heavy: B1 heavy with T80S, V101K
# chain: B1 chain
# light: B1 light
# B10: CE115HA000 T57A one-arm antibody (antibody, human IgG1, kappa, L234A L235A, N297A, name in Kabat numbering)
# heavy: B1 heavy with T60A, T80S
# chain: B1 chain
# light: B1 light
# B11: CE115HA000 T57K one-arm antibody (antibody, human IgG1, kappa, L234A L235A, N297A, name in Kabat numbering)
# heavy: B1 heavy with T60K, T80S
# chain: B1 chain
# light: B1 light
# B12: CE115HA000 T57I one-arm antibody (antibody, human IgG1, kappa, L234A L235A, N297A, name in Kabat numbering)
# heavy: B1 heavy with T60I, T80S
# chain: B1 chain
# light: B1 light
# B13: CE115HA000 W33H one-arm antibody (antibody, human IgG1, kappa, L234A L235A, N297A, name in Kabat numbering)
# heavy: B1 heavy with W33H, T80S
# chain: B1 chain
# light: B1 light
# B14: CE115HA000 V95E one-arm antibody (antibody, human IgG1, kappa, L234A L235A, N297A, name in Kabat numbering)
# heavy: B1 heavy with T80S, V101E
# chain: B1 chain
# light: B1 light
# B15: CE115HA000 V100cD one-arm antibody (antibody, human IgG1, kappa, L234A L235A, N297A, name in Kabat numbering)
# heavy: B1 heavy with T80S, V109D
# chain: B1 chain
# light: B1 light
# B16: CE115HA000 V100cE one-arm antibody (antibody, human IgG1, kappa, L234A L235A, N297A, name in Kabat numbering)
# heavy: B1 heavy with T80S, V109E
# chain: B1 chain
# light: B1 light
# B17: CE115HA000 Y58D one-arm antibody (antibody, human IgG1, kappa, L234A L235A, N297A, name in Kabat numbering)
# heavy: B1 heavy with Y61D, T80S
# chain: B1 chain
# light: B1 light
# B18: CE115HA000 Y55G one-arm antibody (antibody, human IgG1, kappa, L234A L235A, N297A, name in Kabat numbering)
# heavy: B1 heavy with Y58G, T80S
# chain: B1 chain
# light: B1 light
# B19: CE115HA000 Y55S one-arm antibody (antibody, human IgG1, kappa, L234A L235A, N297A, name in Kabat numbering)
# heavy: B1 heavy with Y58S, T80S
# chain: B1 chain
# light: B1 light
# B20: CE115HA000 T57N one-arm antibody (antibody, human IgG1, kappa, L234A L235A, N297A, name in Kabat numbering)
# heavy: B1 heavy with T60N, T80S
# chain: B1 chain
# light: B1 light
# B21: CE115HA000 T28D one-arm antibody (antibody, human IgG1, kappa, L234A L235A, N297A, name in Kabat numbering)
# heavy: B1 heavy with T28D, T80S
# chain: B1 chain
# light: B1 light
# B22: CE115HA000 Y58N one-arm antibody (antibody, human IgG1, kappa, L234A L235A, N297A, name in Kabat numbering)
# heavy: B1 heavy with Y61N, T80S
# chain: B1 chain
# light: B1 light
# B23: CE115HA000 V100cP one-arm antibody (antibody, human IgG1, kappa, L234A L235A, N297A, name in Kabat numbering)
# heavy: B1 heavy with T80S, V109P
# chain: B1 chain
# light: B1 light
# B24: CE115HA000 Y58L one-arm antibody (antibody, human IgG1, kappa, L234A L235A, N297A, name in Kabat numbering)
# heavy: B1 heavy with Y61L, T80S
# chain: B1 chain
# light: B1 light
# B25: CE115HA000 W33A one-arm antibody (antibody, human IgG1, kappa, L234A L235A, N297A, name in Kabat numbering)
# heavy: B1 heavy with W33A, T80S
# chain: B1 chain
# light: B1 light
# B26: CE115HA000 V95G one-arm antibody (antibody, human IgG1, kappa, L234A L235A, N297A, name in Kabat numbering)
# heavy: B1 heavy with T80S, V101G
# chain: B1 chain
# light: B1 light
# B27: CE115HA000 W33F one-arm antibody (antibody, human IgG1, kappa, L234A L235A, N297A, name in Kabat numbering)
# heavy: B1 heavy with W33F, T80S
# chain: B1 chain
# light: B1 light
# B28: CE115HA000 Y58Q one-arm antibody (antibody, human IgG1, kappa, L234A L235A, N297A, name in Kabat numbering)
# heavy: B1 heavy with Y61Q, T80S
# chain: B1 chain
# light: B1 light
# B29: CE115HA000 T28S one-arm antibody (antibody, human IgG1, kappa, L234A L235A, N297A, name in Kabat numbering)
# heavy: B1 heavy with T28S, T80S
# chain: B1 chain
# light: B1 light
# B30: CE115HA000 Y58K one-arm antibody (antibody, human IgG1, kappa, L234A L235A, N297A, name in Kabat numbering)
# heavy: B1 heavy with Y61K, T80S
# chain: B1 chain
# light: B1 light
# B31: CE115HA000 W33L one-arm antibody (antibody, human IgG1, kappa, L234A L235A, N297A, name in Kabat numbering)
# heavy: B1 heavy with W33L, T80S
# chain: B1 chain
# light: B1 light
# B32: CE115HA000 V95D one-arm antibody (antibody, human IgG1, kappa, L234A L235A, N297A, name in Kabat numbering)
# heavy: B1 heavy with T80S, V101D
# chain: B1 chain
# light: B1 light
# Target: T1, CD3ε homodimer protein (human, UniProt P07766 23-126, limits assumed, sulfo-tag or biotin label in the ECL assays; amine-coupled to the chip in SPR)
# T1 construct: also called human CD3ε homodimer protein; CD3 (CD3ε)
# Assay: SPR Biacore T200; CD3ε homodimer on CM4 chip;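 note: Single-residue variant antibodies injected as analyte over CD3ε homodimer immobilized by amine coupling, run at 25 °C in HBS-EP+ buffer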
# T1 sequence (P07766 23-126 limits assumed): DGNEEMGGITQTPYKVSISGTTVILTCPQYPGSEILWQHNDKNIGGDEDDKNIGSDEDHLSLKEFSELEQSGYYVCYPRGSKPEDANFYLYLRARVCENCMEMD
row,ratio of amounts bound Z=Y/X (altered form / CE115HA000),Binder
1,0.9,B1
2,0.45,B2
3,0.22,B3
4,0.66,B4
5,0.11,B5
6,1,B6
7,0.1,B7
8,0.22,B8
9,0.64,B9
10,0.98,B10
11,1.32,B11
12,0.61,B12
13,0.13,B13
14,0.24,B14
15,0.44,B15
16,0.46,B16

row,ratio of amounts bound Z=Y/X (altered form / CE115HA000),Binder
1,0.11,B17
2,0.65,B18
3,0.26,B19
4,0.97,B20
5,0.56,B21
6,0.33,B22
7,0.2,B23
8,0.27,B24
9,0.1,B25
10,0.19,B26
11,0.65,B27
12,0.19,B28
13,0.91,B29
14,0.3,B30
15,0.1,B31
16,0.24,B32
